Test: yeast display, Sf9 membrane polyspecificity reagent, FACS + sequencing; frameworks hold sequencing errors
Procedure, shortened: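 A nanobody's polyreactivity label depends on the gate it was sorted from. Yeast display cells were stained with 10% biotinylated, detergent-solubilized Sf9 membrane reagent for 1 hour at 4 °C, enriched on streptavidin microbeads and sorted by FACS. The low and high (top ~1%) gates were set on anti-HA fluorescence for expression and streptavidin fluorescence for reagent binding.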

| Sequence | polyreactivity (PSR sort gate) |
| --- | --- |
| QVQLVESGRGLVQAGGSLRLSCAASGFIFAYYAMGWYRQAPGKERELVAAITRSGGGTKYADSVKGRFTISRDNAKNTVYLHMNSLKPEDTAVYYCAARWYRQLRDLDYWGQGTQVTVSS | high polyreactivity |
| QVQLVESGGGLVQAGGSLRLSCAASGRIFILYAMGWYRQAPGKERELVAAITGGSTYYADSVKGRFTISRDNAKNTVYLQMNSLKPEDSAVYYCAADVRHYIWEYYYWGQGTQVTVSS | low polyreactivity |
| QVQLVESGGGLVQAGGSLRLSCAASGSIFVFNAMGWYRQAPGKERELVAAITSGGRTYYADSVKGRFTISRDNAKNTVYLQMNSLKPEDTAVYYCARRYRARGSMYYWGQGTQVTVSS | high polyreactivity |
| QVQLVESGGGLVQAGGSLRLSCAASGSPFSSYVMGWYRQAPGTERELVAAISSIGGSTYSADSVKGRFTISRDNAKNTVFLQLNSLKPEDTAVYYCNALYDVWITLHTYTSSDYWGEGTQVTVSS | low polyreactivity |
| QVQLVESGGGLVQAGGSLRLSCAASGRIFAANTMGWYRQAPGKEREFVAVIRGRGGSTYYADSVKGRFTISRDNAKNTVYLQMNSLKPEDTAVYYCAAYYKPYRERLYGYWGQGTQVTVSS | high polyreactivity |
| QVQLVQSGGGIVQAGGSLRLSCAAYGITFGRNNMGWDRQAPGKERELVAALDSGGNTYADSVKGRFTISRDNAKQTVYVQMNSLKPEDTAVYDCAVDGGEFSSYGYWGQGTQVTVSS | low polyreactivity |
| QVHHVESGFGLVQAGGSLRLSCASSGTFTVNTMGWYRQAPGKERELVAAISTGDTTTYADSVKGRFTISRDNAKNTVYLQMNSLKPEDTAVYYCNVDIGVYAYESDYWGQGTQVTVSS | low polyreactivity |
| QVQLVESGGGLVQAGGSLRLSCAASGSIFGRYAMGWYRQAPGNERELVAGICSRGTSTYYADSVKGRFTISRDNAKNTVYLQMNSLKPEDTAVYYCNAYPYYIVGSRYDYWGQGTQVTVSS | high polyreactivity |
| QVQLVESGGGLVQAGGSLRLSCAASGSTFAYYVMGWYRQAPGKERELVAAISRGGRTYYADSVKGRFTISRDNAKNTVYLQMNSLKPEDTAVYYCAKPYHQRSAKVDYWGQGTQVTVSS | low polyreactivity |
| QVQFVESGGGLVQAGGSLRLSCAASGFTFVWYDMGGYRQAPGKERELVAAISSGGSTYYADSVKGRFTISRDNAKNTVYLQMNSLKPEDTAVYYCAVYTGYYNYIYQYDYWGQGTQVTVSS | low polyreactivity |
| QFQLVESGGGLVQAGGSLPLSCAASGSIFLWTAMGWYRQAPGKERELVAAITLRGGSTYYADSLKGRFTISRDNAKYAVYLQLNSLKPEDTAVFYCAADVFLLYDYWGQGTQVTVSS | low polyreactivity |
| QVQLVESGGGLVQAGGSLRLSCAASGRTFRINAMGWYRQAPGKERELVAAITRGDTNYADSVKGRFTISRDNAKNTVYLQMNSLKPEDTAVYYCNAELSFRYPVFRELDYWGQGTQVTVSS | low polyreactivity |
| QVQLVESGGGLVQAGGSLRLSCAASGSIFKKYAMGWYRQAPGKERELVAAITSGGSTYYADSVKGRFTISRDNAKNTVYLQMNSLKPEDTAVYYCATYRKGSLGSWGQGTQVTVSS | high polyreactivity |
| QVQLVESGGGLVQAGGSLRLICAASGRIIYCNGMGWYRQAPGKERELVAAISSGGSTYYADSVKGRFTISRDNAKNTVYLQMNCLKPEDTAVYYCAADIDYESDRYDYWGQGTQVTVSS | low polyreactivity |
| QVQLVESGGGLVQAGGSLRLSCAASGGIFRANALGWYRQAPGKERELVAAIRYSGGGTYYADSVKGRFTISRDNAKNTVYLQMNSLKPEDTAVYYCAARYRGRGYVAYDYWGQGTQVTVSS | high polyreactivity |
| QVQLVESGGGLVQAGGSLRLICAAYGITIGVYAMGWYRQAPVKERELVAAISSSGDTTYYADSVKGRFTISRDNAKNTVYLQKNSLKPEDTAVYYSAAYSHHQFSRSEYYYWGQGTQVTVSS | low polyreactivity |
| QVQLVESGGGLVQAGGSLRLTCAASGFTFSEYAMGWYRQAPGKEMEVVAAISWRGGSTYYADSVKGRFTISRDNAKNTVYLQMNSLKPEDTAVYYCAADSSGVYASWYKMDYWGKGTQVTVSS | high polyreactivity |
| QVQLVESGGGLVEAGGSHRLSCAASGSTFNYYAMGWYRQAPGKERELVASISGGGSTSYADSVKGRFTISRDHAKNTVYLQMNSLNPEHTAVYYCAATPIGQHFPLDYWGPGTQVTVSS | low polyreactivity |
| QVQLVESGGGLVQAGGSLRLSCAASGTIFGSNAMGWYRQAPGKERELVAAISWRGGRTYYADSVKGRFSISRDYAKNTVYLQMYSLKPVETAVYYCAKRWRRRFVDVWSLYDYWGQGTQVTVSS | low polyreactivity |
| QVQLVESGGGLVQAGGSLRLSCAASGRTFASYAMGWYRQAPGKERELVASIRYSGGSTHYADSVKGRFTISRDNAKNPVYLQMNSLKPEDTAVYYCNARPKFRTYNYWGQGTQVTVSS | high polyreactivity |
| QVQLVESGGGLVQAGGSLRLSCAASGITFYTYVMGWYRQAHGKERELVAAITNADSTYYADSVKGRFTISRDNAKNTVYLQMNSLKPEDTAVYYCAADWYWGGIVDSWGQGTQVTVSS | high polyreactivity |

| Sequence | polyreactivity (PSR sort gate) |
| --- | --- |
| QVQLVESGGGLVQAGGTLRLSCAASGRTFPLYAMGWYRQAPGKERELVAAISSSGGNTYYADSVKGRFTISRDNAKNTVYLQMNSLKPEDTAVYYCNADVSTNSDRLQLDYWGQGTQVTVSS | low polyreactivity |
| QVQLVESGGGLVQAGGSLRLSCAASGIILYPYAMGWYRQAPGKERELVAAISWSGGSTYYADSVKGRFTISRDNAKNTVYLQMNSLKPEDTAVYYCNARYYGPSWNSYDYWGQGTQVTVSS | high polyreactivity |
| QVQLVESGGGLVQAGGSLRLSCAASGRTFQRNAMGWYRQAPGKERELVAAITTGSRTYYADSVKGRFTISRDNAKNTVYLQMNSLKPEDTAFYYCAAVATRRDYGYWGQGTQVTVLS | high polyreactivity |
| QDQLVESGGGLVQEGGSLRLSCAASGSIFARNAMGWYRQAPGKERELVAAISRSGGSTYYADSVKGRFTISRDNAKNTVYVQMNSMKPEDTAVYFCNAVQRYSQGDYWGHGTQVTVSS | high polyreactivity |
| QVQLVESGGGLVQAGGSLRLRCAASGSSFIWNAMGWYRQAPGKERELVAAISSGGSTYYADSVKGRFTISRDNAKNTVDLQMNSQKPPDTAVYYCAAEYVNNVWEQSYAVYSTDDYWGQGTQVTVSS | low polyreactivity |
| QVQHVESRGGLVQAGGSLRLSCAASGIIFRYAMGWYRQAPGKERELVAAIRKSDGSTYYADSVKGRFTISRDNAKNTFYLQMNSLKPEDTAVYYCATDIGYGNRKGFYYWGQGSQVTVSS | high polyreactivity |
| QVQLVESGGGLVQAGGSLRLSCAASGSTIPSYALGWYRPAPGKERELGASITYSDGTTRYADSVKARFTISRDNAKNTVYLQMNSLKPEDTAVYYCNAVYYREGMDYWGQGTQVTVSS | low polyreactivity |
| QVQLVESGGGLVQAGGSLRLSCAASGFTFYRYAMGWYRQAPGKERELVAAITGGGSTYYADSVKGRFTISRDNAKNTVYLQMNSLKPEDTAVYYCNADIRAYTVLTGGYIYDYWGQGTQVTVSS | high polyreactivity |
| QVQLVESGGGLVQAGGSLRLSCAASGSTFYPYAMGWYRLAPGKERELVAVISSGGSTNYADSVKGRFTISRDNAKNTVYLQMNSLKPEDTAVYYCAADLAVYYIFLALEFNYWGQGTQVTVSS | low polyreactivity |
| QVQLVQSGGGLVQAGGSLRLSCAASGFTLRRNAMGWYRQAPGKERELVAAISSSGSTYYADSVKGRFTISRDNAKNTVYLQMNSLKPEDTAVYYCAASATYKVRGGYWGQGTQVTVSS | high polyreactivity |
| QVQLVESGGGLVQEGGSLRLSCAASGSIFDTYAMGWYRQAPGKERELVAAISSGGRTYYADSVKGRFTISRDNAKNTDYFQMNSLKPEYTAVYYCAKERYQQGNYYRYGYWGQGTQVTVSS | high polyreactivity |
| QVQLVESGGGLVHAGGSLRLSCAASGRIFSPYARGWYRQAPGKERELDAAMSGSRGRTYYADSVKGRFTISRDNAKNTEYLLMNRLKPEDTADYYCAAYRAITRANYLDYWGQGTQVTVSS | high polyreactivity |
| QVQLVESGGGLVQAGGSLRLSCAASGRTFELYAMGWYRQAPGKERELVAAIRQSDVSTYYADSVKGRFTISRDNAKNTVYLQMNSLKPEDTAVYYCAARNRYRRRYYYWGQGTQVTVSS | high polyreactivity |
| QDQIGESGGGLVQAGGSLSLSCAASGTTIVNNAMGRNRQARWKERELVAAITQRGGRSSYADSVNGRFTISRDNAKNTVYLQMNSLKPEDTAVYYCATVATCRHKGKYNYLGQGTQVTVSS | low polyreactivity |
| QVQLVESGGGLVQAGGSLRLSCAASGSTFQLYDMGWYRQEPGKERELVAGISRDGSTYYADSVKGRFTISRDNAKNTVYLLMNSLKPEDTAVYYCAAKFYGNKRDLYYWGQGTQVTVSS | low polyreactivity |
| QVQLVESGGGLVQAGGILRLSCAASGFTFTYYAMGWYIQAPGKERELVAAITRDDSTNYADSVKGRFTISRDNAKNTVYLQMNSLKPEDTAVYYCAADSWYPSYGYWGQGTQVTVSS | low polyreactivity |
| QVQLVESGGGLVQAGGSLRLSCAASGRIFNSYAMGWYRQAPGKERELVAAISWSGSSTYYADSVKGRFTISRDNAKNTVYLQMNSLKPEDTAVYYCAAGTRYFDYWGQGTQVTVSS | high polyreactivity |
| QVQLVESGGGLVQAGGSLRLSCAASGRIFPAYTMGWYRQAPGKERELVAAITWSGGSTYYADSVKGRFTISRDNAKNTVYLQMNSLKPEDTAVYYCAADKLYWYYGTEYGYWGQGTQVTVSS | low polyreactivity |
| QVQLVESGGGLVQAGGGLRLSCAASGRTFYIYAMGWYRQAPGKERELVAAISWRGGSTYYADSVKGRFTISRDNAKNTGYLQMNSLKPEDTAVYYCAKVYARTVGWFNYWGQGTQVTVSS | high polyreactivity |
| QVQLVESGGGLDQAGGSLRLSCAACGIIFYVYDMGGYRQAPGKERELVPISGSSTYYADSVKGRFTISRDNAKNSVYLQMNSLKPEDTAVYYWSADGVELYDYWGQGTQVTVSS | low polyreactivity |

Reference: the nanobody polyreactivity screen of Harvey et al. (2022)
